Laboratory results as given in paper PMC4514111.

Target: PARP-1 (recombinant, unmodified) (UniProt P09874 1-1014)
Experiment: EMSA

PARP-1 (recombinant, unmodified), sequence (P09874 whole entry): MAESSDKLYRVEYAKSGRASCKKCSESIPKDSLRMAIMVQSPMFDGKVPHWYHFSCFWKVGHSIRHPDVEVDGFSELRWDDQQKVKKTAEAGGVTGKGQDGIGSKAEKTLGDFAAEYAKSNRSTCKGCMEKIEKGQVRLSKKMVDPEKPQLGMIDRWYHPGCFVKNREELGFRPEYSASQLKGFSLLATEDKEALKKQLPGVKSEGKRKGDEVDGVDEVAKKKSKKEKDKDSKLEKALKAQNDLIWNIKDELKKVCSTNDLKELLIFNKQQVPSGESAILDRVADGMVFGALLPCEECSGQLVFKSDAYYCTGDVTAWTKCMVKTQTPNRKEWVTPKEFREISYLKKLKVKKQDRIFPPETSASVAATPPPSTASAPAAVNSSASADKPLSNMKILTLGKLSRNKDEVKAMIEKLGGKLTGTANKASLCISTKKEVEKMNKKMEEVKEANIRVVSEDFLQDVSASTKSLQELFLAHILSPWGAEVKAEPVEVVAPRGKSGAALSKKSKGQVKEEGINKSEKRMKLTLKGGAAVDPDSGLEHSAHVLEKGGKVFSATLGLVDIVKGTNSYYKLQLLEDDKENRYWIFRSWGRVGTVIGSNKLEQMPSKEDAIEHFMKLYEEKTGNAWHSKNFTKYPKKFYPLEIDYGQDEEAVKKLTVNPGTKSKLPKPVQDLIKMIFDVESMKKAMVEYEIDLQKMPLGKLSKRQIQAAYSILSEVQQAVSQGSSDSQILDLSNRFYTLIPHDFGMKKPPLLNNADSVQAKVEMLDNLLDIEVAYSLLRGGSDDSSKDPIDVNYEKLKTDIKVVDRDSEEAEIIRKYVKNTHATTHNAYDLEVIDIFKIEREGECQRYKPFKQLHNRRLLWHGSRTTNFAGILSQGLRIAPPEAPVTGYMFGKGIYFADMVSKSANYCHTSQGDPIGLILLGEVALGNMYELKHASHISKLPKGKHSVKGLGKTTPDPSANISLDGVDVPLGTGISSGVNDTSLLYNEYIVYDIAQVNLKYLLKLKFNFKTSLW

B1: NS (MOR poly(C) sequence) (dsDNA)
DNA 1: CTTCTGCTCCCCCCCCCCCTACCC
DNA 2: GGGTAGGGGGGGGGGGAGCAGAAG
- binding result: binds
